This note sets out measurements from paper PMC2752052.

Substrate in the series: NC(=O)c1ccc[n+]([C@@H]2O[C@H](COP(=O)([O-])OP(=O)(O)OC[C@H]3O[C@@H](n4cnc5c(N)ncnc54)[C@H](O)[C@@H]3O)[C@@H](O)[C@H]2O)c1
As to the kind of experiment: purified protein. It is filed as biochemical, Homo sapiens.

B1: Sirt1 (Homo sapiens) (protein)
chain: ADEAALALQPGGSPSAAGADREAASSPAGEPLRKRPRRDGPGLERSPGEPGGAAPEREVPAAARGCPGAAAAALWREAEAEAAAAGGEQEAQATAAAGEGDNGPGLQGPSREPPLADNLYDEDDDDEGEEEEEAAAAAIGYRDNLLFGDEIITNGFHSCESDEEDRASHASSSDWTPRPRIGPYTFVQQHLMIGTDPRTILKDLLPETIPPPELDDMTLWQIVINILSEPPKRKKRKDINTIEDAVKLLQECKKIIVLTGAGVSVSCGIPDFRSRDGIYARLAVDFPDLPDPQAMFDIEYFRKDPRPFFKFAKEIYPGQFQPSLCHKFIALSDKEGKLLRNYTQNIDTLEQVAGIQRIIQCHGSFATASCLICKYKVDCEAVRGDIFNQVVPRCPRCPADEPLAIMKPEIVFFGENLPEQFHRAMKYDKDEVDLLIVIGSSLKVRPVALIPSSIPHEVPQILINREPLPHLHFDVELLGDCDVIINELCHRLGGEYAKLCCNPVKLSEITEKPPRTQKELAYLSELPPTPLHVSEDSSSPERTSPPDSSVIVTLLDQAAKSNDDLDVSESKGCMEEKPQEVQTSRNVESIAEQMENPDLKNVGSSTGEKNERTSVAGTVRKCWPNRVAKEQISRRLDGNQYLFLPPNRYIFHGAEVYSDSEDDVLSSSSCGSNSDSGTCQSPSLEEPMEDESEIEEFYNGLEDEPDVPERAGGAGFGTDGDDQEAINEAISVKQEVTDMNYPSNKS
Regarding B1, the Km (in general, the concentration of substrate that gives half-maximal velocity) worked out at 171 ± 23 µM.
